The values below come from US7951549B2, “Methods for the identification of agents that inhibit mesenchymal-like tumor cells or their formation” (OSI Pharmaceuticals, Inc., priority 2008, dated 2011).

Test [1] has as its system H358 cells. In words: Immunofluorescence and confocal imaging of E-cadherin and vimentin in ligand-treated H358 cells. It is filed as cell-based, human. The conditions noted are these: cells treated for 7 days. As to the method: Cells were plated on coverslips on experimental day 0, stimulated with ligand on day 1 and refreshed with medium and ligand on day 3-4. On day 7, cells were fixed at room temperature for 10 minutes in 4% paraformaldehyde (EMS #15701)/PBS (Gibco #14190). Cells were blocked in 3% BSA/PBS and incubated with primary antibody (E-cadherin, Santa Cruz #sc21791 and Vimentin, Chemicon #AB5733) diluted in blocking buffer for two hours at room temperature. Cells were washed and incubated in secondary antibody (Invitrogen #A11029 and Chemicon #AP194R) followed by nuclear counterstain TO-PRO3 (Invitrogen #T3605). Coverslips were mounted on slides with Pro-Long Gold anti-fade reagent (Invitrogen P36934). Images were captured on a Leica DMRXE microcope with SP2 scanner using Leica Confocal Software.

Test [2] concerns H358 cells. The experiment in a line: Induction of EMT in H358 cells by growth factors and cytokines (immunoblot of EMT biomarkers). It is filed as cell-based, human. The conditions noted are these: seven day treatment of H358. As for the experimental part:
The human line H358 was cultured in the appropriate ATCC recommended supplemented media. Growth factor and cytokine induced EMT was monitored over a 7-14 day period. […]
Cell lines were treated as indicated in the text and figure legends. […] Protein concentration was determined by micro-BCA assay (Pierce, #23227). […]
For orientation: A western blot detects proteins with antibodies after separation by electrophoresis.

B1: OSM: oncostatin M (R&D Systems #295-OM) (protein, UniProt P13725 26-221, looked up)
Oncostatin-M: AAIGSCSKEYRVLLGQLQKQTDLMQDTSRLLDPYIRIQGLDVPKLREHCRERPGAFPSEETLRGLGRRGFLQTLNATLGCVLHRLADLEQRLPKAQDLERSGLNIEDLEKLQMARPNILGLRNNIYCMAQLLDNSDTAEPTKAGRGASQPPTPTPASDAFQRKLEGCRFLHGYHRFMHSVGRVFSKWGESPNRSRR
In the case of B1, the “extent of EMT at the single cell level (E-cadherin and vimentin expression and localization)” value in the test on H358 cells [1] is recorded as “partial EMT”. Moreover, the “E-cadherin repression or vimentin induction as single agents” value in the test with H358 cells [2] is “neither HGF or OSM as single agents produced significant”.
